The source of these data is article PMC7688135, “Two cis-regulatory SNPs upstream of ABCG2 synergistically cause the blue eggshell phenotype in the duck”.

The target of data set [1] is T1, CTCF (Homo sapiens, UniProt P49711 1-727).
T1 sequence: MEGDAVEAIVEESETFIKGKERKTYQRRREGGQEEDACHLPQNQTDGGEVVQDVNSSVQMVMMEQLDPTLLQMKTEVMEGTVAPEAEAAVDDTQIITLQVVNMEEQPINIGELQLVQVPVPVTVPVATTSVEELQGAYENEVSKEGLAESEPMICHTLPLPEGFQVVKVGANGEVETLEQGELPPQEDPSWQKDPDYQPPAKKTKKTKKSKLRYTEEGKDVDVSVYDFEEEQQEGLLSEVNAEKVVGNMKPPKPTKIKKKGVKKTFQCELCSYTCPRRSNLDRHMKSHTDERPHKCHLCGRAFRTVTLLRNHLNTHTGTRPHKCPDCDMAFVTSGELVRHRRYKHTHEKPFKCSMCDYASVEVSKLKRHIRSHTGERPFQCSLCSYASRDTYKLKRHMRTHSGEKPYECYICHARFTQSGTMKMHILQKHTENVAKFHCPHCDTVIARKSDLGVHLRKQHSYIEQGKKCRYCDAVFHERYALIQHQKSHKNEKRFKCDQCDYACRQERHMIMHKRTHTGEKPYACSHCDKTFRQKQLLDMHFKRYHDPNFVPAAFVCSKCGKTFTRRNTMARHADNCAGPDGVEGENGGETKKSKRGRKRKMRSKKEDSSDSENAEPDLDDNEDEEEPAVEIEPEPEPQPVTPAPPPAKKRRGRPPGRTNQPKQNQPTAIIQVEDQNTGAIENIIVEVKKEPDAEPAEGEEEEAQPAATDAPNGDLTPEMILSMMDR
The experiment in a line: EMSA supershift; anti-CTCF antibody; supershift evident; Buffer, salt, pH and temperature not given; 40 pmol biotin probe, 200-fold cold competitor, 5% non-denaturing PAGE, LightShift Chemiluminescent EMSA kit. Particulars: protein: recombinant; label: 5'-biotin on strand 1; blunt. (In general: In EMSA bound probe runs differently from free probe, usually more slowly.)

Data set [2] has as its target T1, CTCF. The experiment in a line: EMSA supershift; anti-CTCF antibody; Buffer, salt, pH and temperature not given; 40 pmol biotin probe, 200-fold cold competitor, 5% non-denaturing PAGE, LightShift Chemiluminescent EMSA kit. Particulars: protein: recombinant; label: 5'-biotin on strand 1; blunt.

B1: Blue-M5 (A allele) (dsDNA)
DNA 1: ACTTCTGCCACTAGAGGCAGGAGGG
DNA 2: CCCTCCTGCCTCTAGTGGCAGAAGT
On to B1, for which the binding result in the data set with CTCF [1] is “binds”.

B2: White-M5 (G allele) (dsDNA)
DNA 1: ACTTCTGCCACTGGAGGCAGGAGGG
DNA 2: CCCTCCTGCCTCCAGTGGCAGAAGT
For the molecule B2, the binding result with CTCF [2] is on record as “no binding”.
